# Laboratory results from the supplement of paper PMC9112550, “Optimization of the antimicrobial peptide Bac7 by deep mutational scanning” (BMC Biology, 2022).
# Tested on: Escherichia coli TOP10
# Assay: shrunken log2 fold change of peptide-encoding DNA abundance (4.5 h post-induction vs induction); higher = less antimicrobial activity (less host growth inhibition)
# Conditions: time post-induction: 4.5 h; library: site-saturation at positions 5, 18, 19, 20
# 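Further: peptides expressed intracellularly from a pBAD plasmid library in pooled LB shake-flask culture, induced with 0.3% L-arabinose, DNA abundance read by NGS, three biological replicates, DESeq2 with apeglm shrinkage.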
row,Sequence,shrunken log2 fold change
1,RRIRWRPPRLPRPRPRPRPCPRP,0.514
2,RRIRLRPPRLPRPRPRPWTEPRP,-0.01
3,RRIRERPPRLPRPRPRPAVHPRP,-0.144
4,RRIRPRPPRLPRPRPRPCRSPRP,-0.136
5,RRIRERPPRLPRPRPRPRKCPRP,-0.0265
6,RRIRLRPPRLPRPRPRPVGLPRP,0.144
7,RRIRHRPPRLPRPRPRPEQSPRP,-0.0805
8,RRIRKRPPRLPRPRPRPCPWPRP,0.332
9,RRIRQRPPRLPRPRPRPAGPPRP,-0.000608
10,RRIRQRPPRLPRPRPRPHLQPRP,-0.0325
11,RRIRMRPPRLPRPRPRPLWQPRP,0.304
12,RRIRFRPPRLPRPRPRPAHPPRP,0.267
13,RRIRWRPPRLPRPRPRPYKEPRP,-0.387
14,RRIRGRPPRLPRPRPRPLKMPRP,0.27
15,RRIRLRPPRLPRPRPRPRTCPRP,-0.258
16,RRIRDRPPRLPRPRPRPSQDPRP,-0.0683
17,RRIRQRPPRLPRPRPRPSMPPRP,-0.0542
18,RRIRIRPPRLPRPRPRPMHMPRP,-0.0247
19,RRIRLRPPRLPRPRPRPALMPRP,0.306
20,RRIRWRPPRLPRPRPRPDELPRP,0.402
21,RRIRLRPPRLPRPRPRPGLWPRP,0.863
22,RRIRERPPRLPRPRPRPFTNPRP,-0.457
23,RRIRKRPPRLPRPRPRPEKCPRP,0.0317
24,RRIRMRPPRLPRPRPRPGLRPRP,1.15
25,RRIRVRPPRLPRPRPRPREPPRP,0.947

row,Sequence,shrunken log2 fold change
1,RRIRERPPRLPRPRPRPSISPRP,0.0881
2,RRIRERPPRLPRPRPRPYSKPRP,-0.464
3,RRIRHRPPRLPRPRPRPRPCPRP,0.227
4,RRIRNRPPRLPRPRPRPDLGPRP,0.0328
5,RRIRERPPRLPRPRPRPHRYPRP,0.0893
6,RRIRTRPPRLPRPRPRPWFNPRP,-0.471
7,RRIRSRPPRLPRPRPRPGVRPRP,-0.0323
8,RRIRVRPPRLPRPRPRPMINPRP,-0.257
9,RRIRMRPPRLPRPRPRPGHCPRP,-0.0518
10,RRIRVRPPRLPRPRPRPFEPPRP,0.126
11,RRIRTRPPRLPRPRPRPQNGPRP,-0.456
12,RRIRSRPPRLPRPRPRPKCMPRP,-0.218
13,RRIRARPPRLPRPRPRPTNMPRP,-0.275
14,RRIRHRPPRLPRPRPRPWGRPRP,0.0574
15,RRIRKRPPRLPRPRPRPALKPRP,0.48
16,RRIRYRPPRLPRPRPRPRCRPRP,-0.26
17,RRIRQRPPRLPRPRPRPNCHPRP,-0.548
18,RRIRLRPPRLPRPRPRPVLIPRP,-0.303
19,RRIRPRPPRLPRPRPRPPNNPRP,0.414
20,RRIRNRPPRLPRPRPRPYIGPRP,0.0261
21,RRIRSRPPRLPRPRPRPFDWPRP,-0.0461
22,RRIRQRPPRLPRPRPRPLVDPRP,0.187
23,RRIRIRPPRLPRPRPRPILEPRP,0.0083
24,RRIRLRPPRLPRPRPRPPKNPRP,0.43
25,RRIRNRPPRLPRPRPRPECAPRP,0.00267

row,Sequence,shrunken log2 fold change
1,RRIRPRPPRLPRPRPRPWRQPRP,0.0206
2,RRIRIRPPRLPRPRPRPMQIPRP,-0.099
3,RRIRERPPRLPRPRPRPNSPPRP,-0.00647
4,RRIRFRPPRLPRPRPRPGITPRP,-0.45
5,RRIRKRPPRLPRPRPRPIPCPRP,0.276
6,RRIRKRPPRLPRPRPRPCVWPRP,0.205
7,RRIRKRPPRLPRPRPRPWMPPRP,0.0548
8,RRIRYRPPRLPRPRPRPWGLPRP,-0.0143
9,RRIRCRPPRLPRPRPRPGPYPRP,-0.385
10,RRIRKRPPRLPRPRPRPNLHPRP,-0.184
11,RRIRFRPPRLPRPRPRPLLYPRP,-1.01
12,RRIRFRPPRLPRPRPRPSKIPRP,0.903
13,RRIRTRPPRLPRPRPRPCCGPRP,0.635
14,RRIRGRPPRLPRPRPRPMSRPRP,0.00829
15,RRIRPRPPRLPRPRPRPEMIPRP,-0.0258
16,RRIRIRPPRLPRPRPRPQMYPRP,-0.211
17,RRIRSRPPRLPRPRPRPHVAPRP,-0.136
18,RRIRARPPRLPRPRPRPTCMPRP,0.407
19,RRIRKRPPRLPRPRPRPIAPPRP,0.718
20,RRIRMRPPRLPRPRPRPYKYPRP,-0.851
21,RRIRTRPPRLPRPRPRPWIQPRP,-0.194
22,RRIRSRPPRLPRPRPRPCQTPRP,0.131
23,RRIRHRPPRLPRPRPRPTLFPRP,0.267
24,RRIRSRPPRLPRPRPRPEIRPRP,-0.0706
25,RRIRIRPPRLPRPRPRPAGVPRP,0.293

row,Sequence,shrunken log2 fold change
1,RRIRTRPPRLPRPRPRPVCWPRP,0.304
2,RRIRGRPPRLPRPRPRPTDEPRP,0.573
3,RRIRERPPRLPRPRPRPQEYPRP,-0.01
4,RRIRIRPPRLPRPRPRPHCKPRP,-0.147
5,RRIRKRPPRLPRPRPRPAKMPRP,0.376
6,RRIRFRPPRLPRPRPRPAYQPRP,-0.135
7,RRIRERPPRLPRPRPRPRRQPRP,0.00864
8,RRIRFRPPRLPRPRPRPPYVPRP,-0.36
9,RRIRSRPPRLPRPRPRPPECPRP,0.0423
10,RRIRARPPRLPRPRPRPCHQPRP,-0.34
11,RRIRVRPPRLPRPRPRPGEYPRP,0.00369
12,RRIRLRPPRLPRPRPRPYDGPRP,0.0118
13,RRIRIRPPRLPRPRPRPLSCPRP,-0.253
14,RRIRYRPPRLPRPRPRPCTFPRP,-0.208
15,RRIRERPPRLPRPRPRPHTVPRP,-0.346
16,RRIRSRPPRLPRPRPRPNQTPRP,0.0606
17,RRIRRRPPRLPRPRPRPNNQPRP,-0.0752
18,RRIRKRPPRLPRPRPRPTWGPRP,0.317
19,RRIRERPPRLPRPRPRPHDDPRP,-0.147
20,RRIRERPPRLPRPRPRPYYFPRP,-1.04
21,RRIRCRPPRLPRPRPRPRINPRP,-0.0891
22,RRIRSRPPRLPRPRPRPSWSPRP,-0.0102
23,RRIRIRPPRLPRPRPRPETWPRP,0.142
24,RRIRGRPPRLPRPRPRPCEAPRP,0.838
25,RRIRLRPPRLPRPRPRPIFCPRP,-0.314

row,Sequence,shrunken log2 fold change
1,RRIRERPPRLPRPRPRPPCLPRP,-0.579
2,RRIRWRPPRLPRPRPRPMGKPRP,0.561
3,RRIRGRPPRLPRPRPRPFKWPRP,-0.0584
4,RRIRMRPPRLPRPRPRPKYAPRP,0.928
5,RRIRCRPPRLPRPRPRPPDIPRP,0.409
6,RRIRYRPPRLPRPRPRPFWRPRP,0.0184
7,RRIRCRPPRLPRPRPRPHRNPRP,-0.791
8,RRIRPRPPRLPRPRPRPATCPRP,1.55
9,RRIRRRPPRLPRPRPRPPHHPRP,1.09
10,RRIRSRPPRLPRPRPRPEEMPRP,-0.0122
11,RRIRTRPPRLPRPRPRPKWFPRP,-0.0479
12,RRIRSRPPRLPRPRPRPVVEPRP,0.13
13,RRIRCRPPRLPRPRPRPKEKPRP,0.00563
14,RRIRQRPPRLPRPRPRPLMPPRP,-0.0453
15,RRIRSRPPRLPRPRPRPPIIPRP,-0.135
16,RRIRIRPPRLPRPRPRPRKWPRP,0.0966
17,RRIRNRPPRLPRPRPRPQNDPRP,-0.966
18,RRIRSRPPRLPRPRPRPNQKPRP,-0.162
19,RRIRYRPPRLPRPRPRPHMTPRP,-0.845
20,RRIRMRPPRLPRPRPRPEYHPRP,-0.00495
21,RRIRERPPRLPRPRPRPADHPRP,-0.0618
22,RRIRFRPPRLPRPRPRPVDWPRP,0.194
23,RRIRYRPPRLPRPRPRPRYKPRP,-0.451
24,RRIRFRPPRLPRPRPRPRTKPRP,0.947
25,RRIRARPPRLPRPRPRPCEAPRP,0.762

row,Sequence,shrunken log2 fold change
1,RRIRARPPRLPRPRPRPHFRPRP,0.166
2,RRIRKRPPRLPRPRPRPERTPRP,0.772
3,RRIRFRPPRLPRPRPRPCNEPRP,-0.0116
4,RRIRPRPPRLPRPRPRPRCCPRP,0.119
5,RRIRLRPPRLPRPRPRPLFRPRP,-0.388
6,RRIRDRPPRLPRPRPRPVYNPRP,-0.00379
7,RRIRWRPPRLPRPRPRPVQQPRP,-0.0911
8,RRIRFRPPRLPRPRPRPPACPRP,0.628
9,RRIRTRPPRLPRPRPRPDDWPRP,0.276
10,RRIRWRPPRLPRPRPRPLHAPRP,0.499
11,RRIRQRPPRLPRPRPRPTVNPRP,-0.0853
12,RRIRNRPPRLPRPRPRPMEYPRP,-0.0389
13,RRIRQRPPRLPRPRPRPMALPRP,0.00414
14,RRIRKRPPRLPRPRPRPQFIPRP,-0.0823
15,RRIRARPPRLPRPRPRPAKAPRP,0.332
16,RRIRGRPPRLPRPRPRPDERPRP,0.104
17,RRIRNRPPRLPRPRPRPGYPPRP,0.0226
18,RRIRMRPPRLPRPRPRPEEIPRP,0.0117
19,RRIRWRPPRLPRPRPRPPAYPRP,-0.0328
20,RRIRFRPPRLPRPRPRPHYQPRP,-0.0104
21,RRIRKRPPRLPRPRPRPSDIPRP,1.14
22,RRIRVRPPRLPRPRPRPSLPPRP,-0.226
23,RRIRARPPRLPRPRPRPGFLPRP,0.426
24,RRIRFRPPRLPRPRPRPEDAPRP,0.00922
25,RRIRPRPPRLPRPRPRPELYPRP,0.0891
